# In patent publication US20240124857A1, “COMPOSITION FOR GUT HEALTH” (DUPONT NUTRITION BIOSCIENCES APS, priority 2021, published 2024):
# B1: CRC22110: GDA1/CD39 family enzyme, accession EKE69473.1, SEQ ID NO:9 (predicted mature), SEQ ID NO:1 (protein, listed as Gallaecimonas xiamenensis)
# chain: ADKPACRAVFDAGSSGTRLFLYVQQEGGWQPWPGAKLGALADPVRQHQGPKAMAALAADLANSLEALRQDGPTNSEGQPRWQGFDWQQACRLQSVSVLATAGMRLAEQQDPVASVALWQEVQQALAGLLGPAVAIDARTLTGFEEGFYAWLAARARLGRSDMGIVEMGGASSQVAFPCPACDRADDAVQQVRLEGQTLDFYSYSFLGLGQDEAPKVLGVPHACRYGAGVKDPNWQLGQCQAQLPLTLGRALKDPYNFQGQGQGGYRQVPTEKAGVKDWLLTGAFQYNTPDQLDSCCLNQGQCYQPSTACFRVAYLPLYLDSLGVDPHSPDLDVSWTLGAVLCRNEQCLAPSKPPCRWRKAGCLAPSVGDGRPEGRPGQQPGGVQHRQH
# Experiments:
# [1] = system: Acute DSS colitis in C57BL/6 mice; test: Chemically-induced DSS colitis mouse model, disease activity index (DAI); type: in vivo
# Excerpt: Acute DSS colitis was induced in C57BL/6 mice according to the previously published method with minor modification (Sann et al., 2013, Life Sci. April 9; 92(12):708-18). The mice were fed 3% (w/v) DSS dissolved in the drinking water on day one to day five. Fresh DSS solution was provided every other day. Control mice (Group 1) drank only distilled water. Groups 4 to 8 received candidate acid phosphatase enzymes by oral gavage and groups 9 to 12 received enzymes via catheter (Table 2). DAI was calculated as described earlier (Cooper et al., 1993, Laboratory investigation; a journal of technical methods and pathology. 69(2):238-49).
# [2] = Enzyme activity towards ATP at pH 3 to 9 (malachite green phosphate detection); type: biochemical; settings: FIG. 1; 250 μM ATP, 5 mM CaCl2, pH 3 to 9
# Method: (§1) Enzyme activity towards ATP or ADP at pH 3 to 9: The ability of candidate enzymes to degrade ATP or ADP to AMP and free phosphate (Pi) was measured using a standard malachite green phosphate detection kit (Sigma Aldrich cat no. MAK307). The enzyme reactions were carried out in 96-well plates with a total volume of 150 μL and contained 250 μM of a substrate, 50 mM of a buffer, 5 mM CaCl2, and a variable concentration of enzyme. The substrate was ATP or ADP. The buffer was glycine (pH 3), acetate (pH 4, 4.5, 5), bis-Tris (pH 5.5, 6, 6.5), or Tris (pH 7, 8, 9). The concentration of enzyme varied from about 1 μg/mL to 1 ng/mL and was adjusted based on the activity of the enzyme so that the amount of phosphate released during the assay was with the dynamic range of the assay (5-100 μM phosphate). The enzyme concentration was determined by the absorbance at 280 nm and using the predicted molecular weight and molar extinction coefficient to calculate the concentration. […] The malachite green reaction mixture was allowed to rest at room temperature for 45-60 min and the absorbance at 620 nm was measured. Lastly, the absorbance of the phosphate standards were used to convert the absorbance readings of each sample into phosphate concentrations and the negative control was subtracted from each reaction.
# [3] = ATPase activity at 0.05 ppm enzyme on 0.1 mM ATP (absorbance 620 nm); type: biochemical
# How it was run: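 Enzyme at 0.05 ppm with 0.1 mM ATP in 50 mM MES buffer, pH 6 and pH 5, with 5 mM CaCl2; reaction stopped after 5 min. Released phosphate detected by malachite green at 620 nm, water blank subtracted.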
# [4] = Enzyme activity towards ADP at pH 3 to 9 (malachite green phosphate detection); type: biochemical; settings: FIG. 2; 250 μM ADP, 5 mM CaCl2, pH 3 to 9
# Method: as §1
# [5] = Enzyme acid resistance: residual activity on ATP after incubation at pH 2; type: physicochemical; settings: 60 min in acid buffer, 50 mM glycine, 5 mM CaCl2; FIG. 4
# Method: Enzyme acid resistance: Candidate enzymes were tested for their ability to resist inactivation at low pH by incubating the enzymes in an “acid buffer” of 50 mM glycine and 5 mM CaCl2 at pH 2 for 15 or 60 minutes and comparing their activity to enzymes in a “control buffer” at their optimum pH. The optimum buffer for CRC21323 and CRC21322 was 50 mM acetate pH 4.5 with 5 mM CaCl2. The optimum buffer for all other enzymes was 50 mM bis-Tris pH 6.5 with 5 mM CaCl2. After incubating in the acidic glycine buffer, the enzyme mixtures were neutralized by mixing with an equal volume of neutralization buffer. The neutralization buffer for CRC21323 and CRC21322 was 100 mM acetate and 10 mM CaCl2 at pH 4.5. The neutralization buffer for the other enzymes was 100 mM bis-Tris and 10 mM CaCl2 at pH 6.5. Next, the acid-stressed and control enzyme were tested for their ability to release phosphate from ATP using the reaction conditions and malachite green assay as described in with the following changes. The only substrate tested was ATP. CRC21323 and CRC21322 were tested with a buffer of acetate pH 4.5, but all other enzymes were tested in a buffer of bis-Tris pH 6.5. After determining the concentration of phosphate in each reaction, the residual activity of each enzyme after 15 or 60 min incubation in the “acid buffer” was calculated by dividing the acid-stressed by the control enzyme phosphate concentrations for each enzyme.
# Apc/minJ mice = test: Antibiotic-induced gut inflammation in Apc/minJ mice: DAI, colon length, histopathology; type: in vivo; settings: antibiotics cocktail, 10 μg/dose oral gavage
# Method: (§2) Apc/minJ mice have a mutated adenomatous polyposis coli gene and are more prone to develop colitis and tumors. In this Example, and using this model, 6-7 weeks old mice were subjected to an antibiotics cocktail of vancomycin, ampicillin, and neomycin (1 mg/mL) for 7 days in drinking water in order to induce a gut inflammatory response. Control mice (Groups 1 and 2) drank only distilled water. Groups 4 and 6 received CRC22110 ay 10 μg/dose enzyme by oral gavage and groups 5 and 6 received human microbiota transplant (HMT) by gavage. HMT was prepared by inoculating fecal sample from a healthy human donor in 20 ml of YCFAC media. Culture was grown anaerobically for 16 hrs at 37° C. Cells were collected by centrifugation and washed with PBS. Cells were resuspended in 10% glycerol and cell numbers were estimated by plating on YCFAC agar plates.
# Disease Severity: Disease severity was scored using a clinical disease activity index (DAI), calculated as previously described using the following parameters: stool consistency, presence or absence of fecal blood and weight loss (Cooper et al., 1993, Laboratory investigation; a journal of technical methods and pathology. 69(2):238-49). The mice were killed on days 12 and 16, colons were measured, and the tissue was prepared for histopathological studies. The colon was fixed in 10% formaldehyde-saline. Hematoxylin and eosin stain (HE)-stained sections are graded based on a scoring system adapted from Burich et al., 2001, Am. J. Physiol. Gastrointest. Liver Physiol. 281:G764-G778 and Hausmann et al., 2007, Clin Exp Immunol. 2007 May; 148(2):373-81. Histology scoring is performed, and a combined score of inflammatory cell infiltration and tissue damage is determined for all the groups.
# [6] = Relative activity on ATP of CRC22110 single-site variants; type: biochemical; settings: in comparison to CRC22110 wild type
# [7] = system: commensals from HMT in Apc/minJ mice; test: Engraftment of human microbiota transplant (HMT) commensals, 16S sequencing of day 13 fecal samples; type: in vivo; settings: group 6 (Ab + HMT + Enz) compared with group 5 (Ab + HMT); FIG. 11
# Method: as §2, with “plates. Promotion of Engraftment: Fecal samples were collected from each mouse per day. Day 13 fecal samples were processed and 16S sequencing was done to evaluate the structure of microbiome. Group 5 was compared with group 6 and engraftment of HMT was evaluated.[…]” for “plates.”
molecule,measurement,setting,value
B1,reduction in DAI score compared to control,"[1]; catheterized mice, test items via cecum BID, FIG. 6A, 6B",47%
same,DAI score compared to CRCO2733,"[1]; non-catheterized mice, oral gavage BID, FIG. 5A, 5B",significant reduction
same,specific activity on ATP over a range of pHs,[2],most active enzyme
same,"Activity on ATP (absorbance at 620 nm, blank subtracted), pH 5.0",[3]; 50 mM IVIES buffer pH 5,0.60
same,"Activity on ATP (absorbance at 620 nm, blank subtracted), pH 6.0",[3]; 50 mM IVIES buffer pH 6,0.37
same,specific activity on ADP over a range of pHs,[4],most active enzyme
same,residual activity after incubation at pH 2,[5],greatest resistance
same,improvement in DAI score compared to control,Apc/minJ mice; FIG. 8,25%
same,colon length compared to control,Apc/minJ mice; FIG. 9,significant improvement
same,focal hyperplasia in the colon (histopathologic analysis),Apc/minJ mice; FIG. 10,absent
same,Relative activity (%) on ATP,[6],100%
same,engraftment of commensals from HMT,[7],better engraftment of several commensals from HMT
